Measurements taken from US20250243277A1 (AVACTA LIFE SCIENCES, published 2025).

B1: Clone 107 (designed binder)
chain: MIPGGLSEAKPATPEIQEIVDKVKPQLEEKTGETYGKLEAVQYKTQVDFTDIHWSTWGTNYYIKVRAGDNKYMHLKVFKSLIPAWQQIHVEDLVLTGYQVDKNKDDELTGF
notes: His-tagged
B2: Clone 108 (designed binder)
chain: MIPGGLSEAKPATPEIQEIVDKVKPQLEEKTGETYGKLEAVQYKTQVDREHASVKFWGTNYYIKVRAGDNKYMHLKVFKSLWLEATPHTQEDLVLTGYQVDKNKDDELTGF
notes: His-tagged
B3: Clone 95 (designed binder)
chain: MIPGGLSEAKPATPEIQEIVDKVKPQLEEKTGETYGKLEAVQYKTQVDTIHPQAKYWGTNYYIKVRAGDNKYMHLKVFKSLWKNLLKPIHEDLVLTGYQVDKNKDDELTGF
notes: His-tagged
B4: Clone 104 (designed binder)
chain: MIPGGLSEAKPATPEIQEIVDKVKPQLEEKTGETYGKLEAVQYKTQVDNAHPLVKNWGTNYYIKVRAGDNKYMHLKVFKSLWRNDTSSIYEDLVLTGYQVDKNKDDELTGF
notes: His-tagged
B5: Clone 102 (designed binder)
chain: MIPGGLSEAKPATPEIQEIVDKVKPQLEEKTGETYGKLEAVQYKTQVDRKAAVVARHGTNYYIKVRAGDNKYMHLKVFKSLWPFLVIEKYEDLVLTGYQVDKNKDDELTGF
notes: His-tagged
B6: Clone 56 (designed binder)
chain: MIPGGLSEAKPATPEIQEIVDKVKPQLEEKTGETYGKLEAVQYKTQVVGGRHRWNWSGTNYYIKVRAGDNKYMHLKVFKSLFEPSGLAAEEDLVLTGYQVDKNKDDELTGF
notes: His-tagged
B7: Clone 84 (designed binder)
chain: MIPGGLSEAKPATPEIQEIVDKVKPQLEEKTGETYGKLEAVQYKTQVVLIRHLWSWSGTNYYIKVRAGDNKYMHLKVFKSLFEGENHQIDEDLVLTGYQVDKNKDDELTGF
notes: His-tagged
B8: Clone 149 (designed binder)
chain: MIPGGLSEAKPATPEIQEIVDKVKPQLEEKTGETYGKLEAVQYKTQVVKTLGVWHWSGTNYYIKVRAGDNKYMHLKVFKSLFEQHAENIEEDLVLTGYQVDKNKDDELTGF
notes: His-tagged
B9: Clone 86 (designed binder)
chain: MIPGGLSEAKPATPEIQEIVDKVKPQLEEKTGETYGKLEAVQYKTQVVDVRGQWAWTGTNYYIKVRAGDNKYMHLKVFKSLFQPRTKATEEDLVLTGYQVDKNKDDELTGF
notes: His-tagged
B10: Clone 77 (designed binder)
chain: MIPGGLSEAKPATPEIQEIVDKVKPQLEEKTGETYGKLEAVQYKTQVVWDRPRWGWTGTNYYIKVRAGDNKYMHLKVFKSLFKESSRNDEEDLVLTGYQVDKNKDDELTGF
notes: His-tagged
B11: Clone 194 (designed binder)
chain: MIPGGLSEAKPATPEIQEIVDKVKPQLEEKTGETYGKLEAVQYKTQVVEERRIWNWTGTNYYIKVRAGDNKYMHLKVFKSLFTASDTHPAEDLVLTGYQVDKNKDDELTGF
notes: His-tagged
B12: Clone 101 (designed binder)
chain: MIPGGLSEAKPATPEIQEIVDKVKPQLEEKTGETYGKLEAVQYKTQVDHHHRFAKWWGTNYYIKVRAGDNKYMHLKVFKSLWFNENREDTEDLVLTGYQVDKNKDDELTGF
notes: His-tagged
B13: Clone 40 (designed binder)
chain: MIPGGLSEAKPATPEIQEIVDKVKPQLEEKTGETYGKLEAVQYKTQVVKRRHFPQWQGTNYYIKVRAGDNKYMHLKVFKSLGDHLNQYPNEDLVLTGYQVDKNKDDELTGF
notes: His-tagged
B14: Clone 175 (designed binder)
chain: MIPGGLSEAKPATPEIQEIVDKVKPQLEEKTGETYGKLEAVQYKTQVVWRRWFPQWPGTNYYIKVRAGDNKYMHLKVFKSLPEADADDPKEDLVLTGYQVDKNKDDELTGF
notes: His-tagged
B15: Clone 48 (designed binder)
chain: MIPGGLSEAKPATPEIQEIVDKVKPQLEEKTGETYGKLEAVQYKTQVVTRKHFPQYWGTNYYIKVRAGDNKYMHLKVFKSLNEPLPVTNIEDLVLTGYQVDKNKDDELTGF
notes: His-tagged
B16: Clone 246 (designed binder)
chain: MIPGGLSEAKPATPEIQEIVDKVKPQLEEKTGETYGKLEAVQYKTQVVERFHFPQFPGTNYYIKVRAGDNKYMHLKVFKSLPHLDYIWNWEDLVLTGYQVDKNKDDELTGF
notes: His-tagged
B17: Clone 184 (designed binder)
chain: MIPGGLSEAKPATPEIQEIVDKVKPQLEEKTGETYGKLEAVQYKTQVVHRKHFHQFTGTNYYIKVRAGDNKYMHLKVFKSLSNDYYETYLEDLVLTGYQVDKNKDDELTGF
notes: His-tagged
B18: Clone 247 (designed binder)
chain: MIPGGLSEAKPATPEIQEIVDKVKPQLEEKTGETYGKLEAVQYKTQVVRREHFPRWPGTNYYIKVRAGDNKYMHLKVFKSLDLLLRKEEVEDLVLTGYQVDKNKDDELTGF
notes: His-tagged
B19: Clone 109 (designed binder)
chain: MIPGGLSEAKPATPEIQEIVDKVKPQLEEKTGETYGKLEAVQYKTQVDISGVGLVPNGTNYYIKVRAGDNKYMHLKVFKSLNWNYPQQPFEDLVLTGYQVDKNKDDELTGF
notes: His-tagged
B20: Clone 103 (designed binder)
chain: MIPGGLSEAKPATPEIQEIVDKVKPQLEEKTGETYGKLEAVQYKTQVDFSFPLVHWYGTNYYIKVRAGDNKYMHLKVFKSLRFRDGGHHVEDLVLTGYQVDKNKDDELTGF
notes: His-tagged
B21: Clone 1 (designed binder)
chain: MIPGGLSEAKPATPEIQEIVDKVKPQLEEKTGETYGKLEAVQYKTQVVVYHVRWNYLGTNYYIKVRAGDNKYMHLKVFKSLSLEEPPVETEDLVLTGYQVDKNKDDELTGF
notes: His-tagged
B22: Clone 105 (designed binder)
chain: MIPGGLSEAKPATPEIQEIVDKVKPQLEEKTGETYGKLEAVQYKTQVDETSENVIQWGTNYYIKVRAGDNKYMHLKVFKSLWPADILTQHEDLVLTGYQVDKNKDDELTGF
notes: His-tagged
B23: Clone 11 (designed binder)
chain: MIPGGLSEAKPATPEIQEIVDKVKPQLEEKTGETYGKLEAVQYKTQVVEVQQQENFQGTNYYIKVRAGDNKYMHLKVFKSLHIYEHIVYREDLVLTGYQVDKNKDDELTGF
notes: His-tagged
B24: Clone 10 (designed binder)
chain: MIPGGLSEAKPATPEIQEIVDKVKPQLEEKTGETYGKLEAVQYKTQVVDDVKNGFVQGTNYYIKVRAGDNKYMHLKVFKSLIDRHVYWLEEDLVLTGYQVDKNKDDELTGF
notes: His-tagged

What follows are binders tested against T1, human PD-L1-Fc (R&D Systems) (human, UniProt Q9NZQ7 19-239) (assay: soluble Affimer ELISA).
T1 construct: Bought from R&D Systems; Biotinylated in-house for the phage selection; also called huPD-L1-Fc; human PD-L1-Fc antigen; not shown: Fc part of the bought fusion
T1 sequence (Q9NZQ7 19-239 limits assumed): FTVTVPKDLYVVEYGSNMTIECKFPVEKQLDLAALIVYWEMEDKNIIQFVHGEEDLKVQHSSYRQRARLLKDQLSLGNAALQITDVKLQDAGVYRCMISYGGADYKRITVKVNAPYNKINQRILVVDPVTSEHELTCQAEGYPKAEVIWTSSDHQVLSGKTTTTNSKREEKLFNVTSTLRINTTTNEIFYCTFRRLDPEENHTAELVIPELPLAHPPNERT

Binding result, binds:
B1
B2
B3
B4
B5
B6
B7
B8
B9
B10
B11
B12
B13
B14
B15
B16
B17
B18
B19
B20
B21
B22
B23
B24
